We go through four molecules from patent US20110300138A1 (published 2011).

The target in test [1] is TSHR with Asp232 mutated to Ala expressed in CHO cells (human) (UniProt P16473). Briefly: cell-based or functional assay.
The target of test [2] is wild type TSHR expressed in CHO cells (human) (UniProt P16473). Briefly: cell-based or functional assay.
For test [3], the target named is TSHR260-AP (human). In words: TSHR260-AP bridge ELISA (full length TSHR on wells, TSHR260-AP in solution); IgG 100 µg/mL diluted in assay buffer. For orientation: In an ELISA, binding on a coated surface is turned into a signal by an enzyme label.
Test [4] deals with TSHR with Asp43 mutated to Ala, expressed in CHO cells (human) (UniProt P16473). In words: cell-based or functional assay.
The target in test [5] is wild type human TSHR (full length) expressed in CHO cells (human) (UniProt P16473). Briefly: cell-based or functional assay.
The target in test [6] is wild type TSHR (human TSH receptor) expressed in CHO cells (human) (UniProt P16473). Briefly: cell-based or functional assay.
In test [7] the target is TSHR with Asp151 mutated to Ala, expressed in CHO cells (human) (UniProt P16473). In words: cell-based or functional assay.
Test [8] concerns the target TSHR with Lys129 mutated to Ala, expressed in CHO cells (human) (UniProt P16473). In words: cell-based or functional assay.
The target of test [9] is TSHR with Thr104 mutated to Ala (expressed in CHO cells) (human) (UniProt P16473). Briefly: cell-based or functional assay.
Test [10] concerns the target human TSHR (thyroid stimulating hormone receptor), full length, expressed in transfected CHO cells (human) (UniProt P16473). In words: cell-based or functional assay.
Test [11] deals with TSHR260-AP (human). In words: TSHR260-AP bridge ELISA (full length TSHR on wells, TSHR260-AP in solution); IgG 0.005 µg/mL diluted in assay buffer.
The target in test [12] is wild type TSHR (human) (UniProt P16473). Briefly: cell-based or functional assay.
Test [13] has as its target TSHR with Lys209 mutated to Ala (human) (UniProt P16473). In words: cell-based or functional assay.
Test [14] concerns the target full length wild type human TSHR (human) (UniProt P16473). In words: TSHR260-AP bridge ELISA, wild type TSHR on wells; IgG at 0.1 µg/mL in HBD.
Test [15] deals with human thyroid stimulating hormone receptor (TSHR), full length (human) (UniProt P16473). Briefly: 125I-K1-70 Fab (competitor) binding to TSHR coated tubes; test sample 10 µg/mL in assay buffer.
Test [16] shares this target. Briefly: 125I-K1-70 Fab (competitor) binding to TSHR coated tubes; test sample 100 µg/mL in assay buffer.
Test [17] deals with thyroid stimulating hormone receptor (TSHR), full length, coated on tubes (human) (UniProt P16473). Briefly: inhibition of 125I-TSH binding, TSHR coated tubes; antibody 10 µg/mL in assay buffer.
Test [18] deals with human thyroid stimulating hormone receptor (TSHR), full length (human) (UniProt P16473). Briefly: 125I-K1-70 Fab (competitor) binding to TSHR coated tubes; test sample 1 µg/mL in assay buffer.

In the case of 5B3 IgG (antibody), in test [1], the % inhibition of TSH stimulation; 5B3 10 µg/mL turned out to be 10%, the % inhibition of TSH stimulation; 5B3 100 µg/mL worked out at 6%, the Mutated/wild type (%) of cyclic AMP produced; 5B3 10 µg/mL + TSH 3 ng/mL is 59% and the Mutated/wild type (%) of cyclic AMP produced; 5B3 100 µg/mL + TSH 3 ng/mL amounted to 58%. In test [2], the % inhibition of TSH stimulation; 5B3 10 µg/mL amounted to 0% and the % inhibition of TSH stimulation; 5B3 100 µg/mL worked out at 0%. In test [3], the Mean absorbance at 405 nm (absorbance at 405 nm) was -0.011. Besides, in test [4], the % inhibition of TSH stimulation, 5B3 10 µg/mL, mutated TSHR worked out at 0%; the % inhibition of TSH stimulation, 5B3 100 µg/mL, mutated TSHR amounted to 4%; the Cyclic AMP produced (pmol/mL), 5B3 10 µg/mL + TSH 3 ng/mL, mutated TSHR was 73.7 pmol/mL; the Cyclic AMP produced (pmol/mL), 5B3 100 µg/mL + TSH 3 ng/mL, mutated TSHR came to 58 pmol/mL. In [4], the Mutated/wild type (%), 5B3 10 µg/mL + TSH 3 ng/mL was 69% and the Mutated/wild type (%), 5B3 100 µg/mL + TSH 3 ng/mL was 56%. In addition, in [5], the % inhibition of TSH stimulation, 5B3 10 µg/mL, wild type TSHR was 0%; the % inhibition of TSH stimulation, 5B3 100 µg/mL, wild type TSHR was 0%; the Cyclic AMP produced (pmol/mL), 5B3 10 µg/mL + TSH 3 ng/mL, wild type TSHR is 106 pmol/mL; the Cyclic AMP produced (pmol/mL), 5B3 100 µg/mL + TSH 3 ng/mL, wild type TSHR came to 104 pmol/mL. Besides, in test [6], the % inhibition of TSH stimulation, Exp 1: 5B3 10 µg/mL was found to be 0%; the % inhibition of TSH stimulation, Exp 1: 5B3 100 µg/mL was 0%; the % inhibition of TSH stimulation, Exp 2: 5B3 10 µg/mL was 0%; the % inhibition of TSH stimulation, Exp 2: 5B3 100 µg/mL came out at 0%. In [6], this molecule had a % inhibition of TSH stimulation: 5B3 10 µg/mL of 0%, a % inhibition of TSH stimulation: 5B3 100 µg/mL of 0%, a % inhibition of TSH stimulation; 5B3 10 µg/mL of 0% and a % inhibition of TSH stimulation; 5B3 100 µg/mL of 0%. In test [6], the Cyclic AMP produced; 5B3 10 µg/mL + TSH 3 ng/mL amounted to 75.6 pmol/mL and the Cyclic AMP produced; 5B3 100 µg/mL + TSH 3 ng/mL was 68.3 pmol/mL. Also, in test [7], the % inhibition of TSH stimulation, mutated TSHR; 5B3 10 µg/mL came to 11%; the % inhibition of TSH stimulation, mutated TSHR; 5B3 100 µg/mL amounted to 0%; the Mutated/wild type (%) of cyclic AMP produced; test sample: 5B3 10 µg/mL + TSH (3 ng/mL) came to 53%; the Mutated/wild type (%) of cyclic AMP produced; test sample: 5B3 100 µg/mL + TSH (3 ng/mL) was found to be 57%. In [8], the % inhibition of TSH stimulation; 5B3 10 µg/mL is 0%, the % inhibition of TSH stimulation; 5B3 100 µg/mL was found to be 13%, the Cyclic AMP produced; 5B3 10 µg/mL + TSH 3 ng/mL amounted to 50.5 pmol/mL and the Cyclic AMP produced; 5B3 100 µg/mL + TSH 3 ng/mL is 42.6 pmol/mL. Besides, in [8], the Mutated/wild type (%) of cyclic AMP produced; 5B3 10 µg/mL + TSH 3 ng/mL was 94% and the Mutated/wild type (%) of cyclic AMP produced; 5B3 100 µg/mL + TSH 3 ng/mL came out at 81%. For the same molecule, in test [9], the % inhibition of TSH stimulation; 5B3 10 µg/mL amounted to 7%, the % inhibition of TSH stimulation; 5B3 100 µg/mL was 6%, the Cyclic AMP produced; 5B3 10 µg/mL + TSH 3 ng/mL turned out to be 59.1 pmol/mL and the Cyclic AMP produced; 5B3 100 µg/mL + TSH 3 ng/mL came out at 60 pmol/mL. Moreover, in test [9], the Mutated/wild type (%) of cyclic AMP produced; 5B3 10 µg/mL + TSH 3 ng/mL came out at 71% and the Mutated/wild type (%) of cyclic AMP produced; 5B3 100 µg/mL + TSH 3 ng/mL stood at 68%. Further, in [10], the % Inhibition of K1-18 IgG stimulation; 10 ng/mL K1-18 IgG + 100 µg/mL 5B3 IgG stood at 0%, the % Inhibition of K1-18 stimulation; 10 ng/mL K1-18 + 100 µg/mL 5B3 IgG was found to be 0% and the % Inhibition of K1-18 stimulation; 10 ng/mL KM 8 [K1-18] + 10 µg/mL 5B3 IgG stood at 3.5%. Besides, the Mean absorbance at 405 nm (absorbance at 405 nm) in test [11] is -0.012. In addition, in test [12], the % inhibition of TSH stimulation, 5B3 10 µg/mL, wild type TSHR came out at 3%; the Cyclic AMP produced (pmol/mL), 5B3 10 µg/mL + TSH 3 ng/mL, wild type TSHR amounted to 76.6 pmol/mL; the Cyclic AMP produced (pmol/mL), 5B3 100 µg/mL + TSH 3 ng/mL, wild type TSHR amounted to 87.7 pmol/mL. Also, in test [13], the % inhibition of TSH stimulation, 5B3 10 µg/mL, mutated TSHR worked out at 2%; the % inhibition of TSH stimulation, 5B3 100 µg/mL, mutated TSHR was found to be 3%; the Cyclic AMP produced (pmol/mL), 5B3 10 µg/mL + TSH 3 ng/mL, mutated TSHR is 56.5 pmol/mL; the Cyclic AMP produced (pmol/mL), 5B3 100 µg/mL + TSH 3 ng/mL, mutated TSHR came out at 55.9 pmol/mL. In test [13], the Mutated/wild type (%) of cyclic AMP produced; 5B3 10 µg/mL + TSH 3 ng/mL stood at 74% and the Mutated/wild type (%) of cyclic AMP produced; 5B3 100 µg/mL + TSH 3 ng/mL was determined as 64%.

On to M22 IgG (antibody), for which the Mean absorbance at 405 nm (absorbance at 405 nm) came out at 0.599 in test [14] and 0.075 in test [11].

As for 9D33 IgG (antibody), the Inhibition of binding (%) in test [15] was found to be 48%; in test [16] it was 62.7%; in test [17], 58.7%; in [18], 43.8%. In test [14], this molecule showed a Mean absorbance at 405 nm (absorbance at 405 nm) of 0.102.

B1: 5C9 IgG (antibody, from another filing, V domains shown)
VH: EVQLVESGGGLIQPGGSLRLSCAASGFTVSSNYMSWVRQAPGKGLEWVSVTYSGGSTSYADSVKGRFTISRDNSKNTLYLQMNSLRAEDTAVYYCARGGRYCSSISCYARSGCDYWGQGTLVTVSS
VL: AIQMTQSPSSLSASVGDRVTITCRASQSISNYLNWYQQKPGKAPKLLIYAASSLQSGVPSRFSGSGSGTDFTLTISSLQPEDFATYYCQQSYSSPSTTFGQGTKLEIK
As for B1, in test [15], the Inhibition of binding (%) was determined as 80.4%. The molecule further returned a Mean absorbance at 405 nm (absorbance at 405 nm) in test [3] of 0.669. In addition, the Inhibition of binding (%) in [16] was found to be 93.3%. In [10], the % Inhibition of K1-18 IgG stimulation; 10 ng/mL K1-18 IgG + 0.001 µg/mL 5C9 IgG was found to be 19%, the % Inhibition of K1-18 IgG stimulation; 10 ng/mL K1-18 IgG + 0.01 µg/mL 5C9 IgG turned out to be 0%, the % Inhibition of K1-18 IgG stimulation; 10 ng/mL K1-18 IgG + 0.1 µg/mL 5C9 IgG was determined as 91% and the % Inhibition of K1-18 IgG stimulation; 10 ng/mL K1-18 IgG + 0.5 µg/mL 5C9 IgG amounted to 99%. In test [10], the % Inhibition of K1-18 IgG stimulation; 10 ng/mL K1-18 IgG + 1 µg/mL 5C9 IgG turned out to be 98%, the % Inhibition of K1-18 IgG stimulation; 10 ng/mL K1-18 IgG + 5 µg/mL 5C9 IgG is 97%, the % Inhibition of K1-18 IgG stimulation; 10 ng/mL K1-18 IgG + 10 µg/mL 5C9 IgG turned out to be 97% and the % Inhibition of K1-18 IgG stimulation; 10 ng/mL K1-18 IgG + 50 µg/mL 5C9 IgG came to 100%. In [10], the % Inhibition of K1-18 IgG stimulation; 10 ng/mL K1-18 IgG + 100 µg/mL 5C9 IgG amounted to 100%, the % Inhibition of K1-18 stimulation; 10 ng/mL K1-18 + 0.001 µg/mL 5C9 IgG is 0%, the % Inhibition of K1-18 stimulation; 10 ng/mL K1-18 + 0.01 µg/mL 5C9 IgG amounted to 25% and the % Inhibition of K1-18 stimulation; 10 ng/mL K1-18 + 0.1 µg/mL 5C9 IgG came out at 99%. In addition, in test [10], the % Inhibition of K1-18 stimulation; 10 ng/mL K1-18 + 1 µg/mL 5C9 IgG stood at 99.4%, the % Inhibition of K1-18 stimulation; 10 ng/mL K1-18 + 10 µg/mL 5C9 IgG turned out to be 99.6% and the % Inhibition of K1-18 stimulation; 10 ng/mL K1-18 + 100 µg/mL 5C9 IgG worked out at 98.7%. This molecule also returned an Inhibition of binding (%) in [17] of 40.5%. For the same molecule, in test [18], the Inhibition of binding (%) worked out at 41.5%. In [11], the Mean absorbance at 405 nm (absorbance at 405 nm) is -0.009.
